One molecule from PMC7040040 (Scientific Reports, 2020) can be followed below.

Common to all, as to conditions: both partners purified
For test [1], the target named is T1, oligomers (AADL) of 100% Aβ(1–42) (Homo sapiens, UniProt P05067).
T1 construct: amyloid beta peptide, residues 1-42; also called Mixed Oligomers (AADL) 0: 100; oligomers consisting of 100% Aβ(1–42); source: 2500 µM Aβ(1–42) added to Ham's F-12 medium, 18 hours at 4 °C, supernatant after centrifugation
Nature of the test: SPR; Biacore 3000; Aβ oligomers or fibrils captured with pE3-Aβ-specific antibodies (pure pE3-Aβ aggregates) or an N-terminal non-pE3-Aβ-specific antibody (Aβ(1–42) aggregates and mixtures); PBD-C06 antibody injected; Single Cycle Kinetics model; bivalent binding.

Another test deals with T2, fibrils of 100% Aβ(1–42) (Homo sapiens, UniProt P05067).
T2 construct: amyloid beta peptide, residues 1-42; also called Mixed Fibrils 0: 100; source: 350 µM Aβ(1–42), diluted to 50 µM, fibrillated 7 days at 37 °C, pH 8.7
The test is described as above.

The target in the next test is T3, Aβ(3–40) monomer (Homo sapiens, UniProt P05067).
T3 construct: amyloid beta peptide, residues 3-40, N-terminal glutamate not cyclised
Nature of the test: SPR; Biacore 3000; antibody captured on a CM5 chip via immobilised anti-mouse or anti-human antibody; monomeric Aβ peptides injected (240 µl, 30 µl/min), running buffer HBS-EP; 1:1 Langmuir binding model. A general note: In SPR one partner is held on a chip, and binding of the other changes the refractive index at the surface.

Another test has as its target T4, Aβ(1–40) monomer (Homo sapiens, UniProt P05067).
T4 construct: amyloid beta peptide, residues 1-40
The description is as above.

As usually defined, the koff is a measure of how fast the partners let go of each other. A higher koff goes with a short-lived complex. By kon is commonly meant a measure of how fast the partners come together. Low readings indicate slow association, high ones fast association.

B1: murine PBD-C06 precursor antibody (antibody, V domains shown)
VH: EVQLQQSGPELVKPGASMKISCKASGYSFTGYTMNWVKQSHGKNLEWIGLINPYNGVTRYNQKFKGKATLIVDKSSSTAYMELLSLTSEDSAVYYCTREAKREWDETYWGQGTLVTVSA
VL: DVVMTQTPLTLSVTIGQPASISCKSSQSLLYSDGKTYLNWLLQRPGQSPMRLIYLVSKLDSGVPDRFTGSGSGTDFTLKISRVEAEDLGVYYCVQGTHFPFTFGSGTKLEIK
notes: murine hybridoma precursor VH; murine heavy chain constant region; murine hybridoma precursor VL; murine light chain constant region, not described; Whole antibody; also called murine precursor antibody
Take B1: the Kd amounted to 2.02 nM in test [1], 1.81 nM with fibrils of 100% Aβ(1–42), 796 nM in the test with Aβ(3–40) monomer and 6310 nM in the test with Aβ(1–40) monomer. Also, the off-rate constant (koff) in the test with Aβ(3–40) monomer and with Aβ(1–40) monomer was 0.0025 s⁻¹ each time. The kon with Aβ(3–40) monomer amounted to 3200 M⁻¹ s⁻¹; in the test with Aβ(1–40) monomer, 390 M⁻¹ s⁻¹.
